Measurements taken from patent US20120230999A1 (ARIZONA BOARD OF REGENTS A BODY CORPORATE OF THE STATE OF …, published 2012).
Blank lines part the entries; values can stand above or below the binder they belong to. The star is where a group is joined. DABCYL = CN(C)c1ccc(/N=N/c2ccc(C(=O)*)cc2)cc1; EDANS = O=S(=O)(O)c1cccc2c(NCCN*)cccc12

How the values were obtained:
[1] = molecular target: T1, internally quenched fluorogenic α-secretase substrate … (SMILES …); test: cell-based or functional assay
T1 peptide: Ac-RE(EDANS)VHHQKLVFK(DABCYL)R-OH

[2] = molecular target: T1, internally quenched fluorogenic …; test: cell-based or functional assay

specificity constant (kcat/KM) relative to parent ASec-1 scFv [1]: 2.8 fold
kcat (per min), hydrolysis of α-secretase Aβ fluorogenic substrate [2]: 61 per min
kcat/Km (µM/min), hydrolysis of α-secretase Aβ fluorogenic substrate [2]: 40.4 µM/min
B1: ASec-1B scFv (scFv)
scFv: DVLMETTQTPLTLSVTIGQPASISCKSSQSLLHTDGKTYLIWLLQRPGQSPKRLIYLVSKLDSGVPDRFTGSGSGTDFTLKISRVEAEDLGVYYCWQGTHFPQTFGGGTKLEIKRADAAPGGGGSGGGGSGGGGSGSESGGGLVKPGGSLKLSCAASGFAFSIYGMETSWFRQTPEKRLEWVATISGGDTYTYYPDSVKGRFTISRDNAKNNLFLQMETSSLRSEDTPLYFCGRSQKLHPWGQGLVTVSA

specificity constant (kcat/KM) relative to parent ASec-1 scFv [1]: 5.6 fold
kcat (per min), hydrolysis of α-secretase Aβ fluorogenic substrate [2]: 34.8 per min
kcat/Km (µM/min), hydrolysis of α-secretase Aβ fluorogenic substrate [2]: 58.1 µM/min
B2: ASec-1A scFv (scFv)
scFv: DVLMETTQTPLTLSVTIGQPASISCKSSQSLLHTDGKTYLIWLLQRPGQSPKRLIYLVSKLDSGVPDRFTGSGSGTDFTLKISRVEAEDLGVYYCWQGTHFPQTFGGGTKLEIKRADAAPGGGGSGGGGSGGGGSGSESGGGLVKPGGSLKLSCAASGFTFSIYGMETFWFRQTPEKRLEWVATISGGDTYTYYPDSVKGRFTISRDNAKNNLFLQMETSSLRSEDTPLYFCGRNHQITMETWGQGTLVTVSA
